Data: US12539335B2, “Tricyclic polypeptide conjugated drug and use thereof” (CONJUSTAR (ZHUHAI) BIOLOGICS CO., LTD., priority 2021, dated 2026)
Where a name gives a salt, the structure may show the parent alone. Starred links: 1 amine or outer side, 2 acyl side, 3 side chain; linkers in the order of their positions; H or OH if unused. Positions of bridges follow the written chain, without caps; N, C: chain ends. Non-standard residues stand in square brackets, D forms with d. Residues, ends and D or L forms follow the SMILES beside them. Chains are numbered I, II in the order given. *: point of attachment. TATA = O=C(CC[*:1])N1CN(C(=O)CC[*:2])CN(C(=O)CC[*:3])C1; Dolaproine = CO[C@@H]([C@@H]1CCCN1)[C@@H](C)C(=O)O; Dil = CC[C@H](C)[C@H](NC)[C@@H](CC(=O)O)OC; 1Nal = N[C@@H](Cc1cccc2ccccc12)C(=O)O; X2 = O=C(CCCC(=O)[*:2])NCCC(=O)[*:1]; PABC = O=C(OCc1ccc(N[*:1])cc1)[*:2]; X1 = C[C@@H](N*)[C@@H](O)c1ccccc1; Hyp = O=C(O)[C@@H]1C[C@@H](O)CN1; hArg = N=C(N)NCCCC[C@H](N)C(=O)O; Cit = NC(=O)NCCC[C@H](N)C(=O)O; Pen = CC(C)(S)[C@H](N)C(=O)O; NMeV = CN[C@H](C(=O)O)C(C)C; Sar = CNCC(=O)O

Experiments:
[1] = Metabolic stability in hepatocytes, Cynomolgus macaques; format: in vitro ADME; details: cynomolgus macaque, hepatocytes (cryopreserved, suspension), 0.5×10^6 cells/mL
Procedure: Test Example 7: Metabolic Stability of the Compounds of the Present Invention in Hepatocytes from Mice, Rats, Cynomolgus Macaques, and Humans
To investigate the metabolic stability of the compounds of the present invention in hepatocytes from mice, rats, Cynomolgus macaques, and humans.
Incubations were performed in 96-well plates using an external extraction method. Several 96-well sample precipitation plates, designated T0, T15, T30, T60, T90, TO-MC, T90-MC, and blank matrix, were prepared, respectively. The recovery culture medium and incubation culture medium were removed in advance and placed in a 37° C. water bath for preheating. […]
At the end of the incubation at the corresponding time point, the incubation plates were removed, from which 25 μL of a compound mixture with the cells and a control compound mixture with the cells were removed and added to sample plates containing 125 μL of stop buffer, respectively. […] All samples were mixed uniformly and then analyzed by the LC-MS/MS method.
The concentration of the compound to be tested and the concentration of the control in the sample were semi-quantitatively determined by the liquid chromatography-tandem mass spectrometry (LC-MS/MS) method without a standard curve and quality control sample. […]

Human Nectin-4 = target: T1, Human Nectin-4 (Homo sapiens, UniProt Q96NY8); assay: Binding capacity to Nectin-4 protein (SPR, Biacore 8K)
T1 construct: purchased GE Healthcare 1006-72
T1 sequence (Q96NY8 32-510): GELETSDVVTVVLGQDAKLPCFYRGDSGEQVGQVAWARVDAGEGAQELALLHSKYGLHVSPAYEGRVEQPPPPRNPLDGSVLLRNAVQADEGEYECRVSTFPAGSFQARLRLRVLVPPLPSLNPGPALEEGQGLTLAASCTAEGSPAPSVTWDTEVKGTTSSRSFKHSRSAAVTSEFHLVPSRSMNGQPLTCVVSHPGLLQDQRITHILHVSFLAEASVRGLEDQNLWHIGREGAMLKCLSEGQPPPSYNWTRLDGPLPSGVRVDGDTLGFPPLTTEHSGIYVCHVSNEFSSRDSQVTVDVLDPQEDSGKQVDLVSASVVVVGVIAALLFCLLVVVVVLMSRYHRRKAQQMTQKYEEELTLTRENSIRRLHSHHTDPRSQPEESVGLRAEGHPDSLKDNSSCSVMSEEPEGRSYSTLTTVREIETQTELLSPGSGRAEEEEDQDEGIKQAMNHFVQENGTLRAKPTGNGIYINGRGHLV
Procedure: Test Example 1. Binding Capacity Test of the Compounds of the Present Invention to Nectin-4 Protein
To detect the affinity of the compound to be tested to the target protein Nectin-4 using the SPR method.
• Biacore 8K (GE Healthcare) • 96-well Plate (Cat #650101, greiner bio-one) • CM5 chip (Cat #BR-1005-30, GE Healthcare) • Amine Coupling Kit (Cat #BR-1000-50, GE Healthcare) • EDC • NHS • 1 M ethanolamine • 10 mM sodium acetate pH 4.5 (Cat #BR-1003-50, GE Healthcare) • DMSO (Cat #D4540, Sigma) • P20 (Cat #BR-1000-54, GE Healthcare) • PBS (Cat #BR-1006-72, GE Healthcare) • Nectin-4 (Cat #1006-72, GE Healthcare) 3. Experimental Protocol
In this experiment, the amino coupling method was used. The target protein Nectin-4 was directly immobilized on the CM5 chip using Biacore 8K. […] The final data were subjected to Kinetics fitting analysis based on a 1:1 model using Biacore Insight Evaluation Software (V 2.0.15.12933).
1) Preparation of the buffer: 10 mM PBS, pH 7.4, 137 mM NaCl, 2.7 mM KCl, 5% DMSO, and 0.05% P20.
2) Activation of the CM5 chip: The CM5 chip was activated with 400 mM EDC and 100 mM NHS at a flow rate of 10 μL/min for 420 seconds.
3) Coupling of the target protein: The target protein was diluted to 10 μg/mL with 10 mM sodium acetate (pH 4.5) and coupled at a flow rate of 10 μL/min for 284 s. The 1 #, 2 #, and 3 #channels on the chip were used in the experiment, and the coupling results were 1639.9RU, 1747.8RU, and 1702.2RU, respectively.
4) Blocking of the CM5 chip: The CM5 chip was blocked with 1 M ethanolamine at a flow rate of 10 μL/min for 420 seconds.
5) Analyte concentration: The compound to be tested was diluted with the buffer. The compound to be tested was diluted from 100 nM to 0.78 nM in a 2-fold gradient.
6) Sample injection analysis: Each concentration of the working solution of the compound to be tested corresponded to one cycle, with a flow rate of 30 μL/min for binding for 180 seconds and dissociating for 180 seconds. The last cycle was a 5% DMSO solvent correction cycle.
7) All results were subjected to kinetics fitting analysis based on a 1:1 model. […]

SMILES: CC[C@H](C)[C@@H]([C@@H](CC(=O)N1CCC[C@H]1[C@H](OC)[C@@H](C)C(=O)N[C@H](C)[C@@H](O)c1ccccc1)OC)N(C)C(=O)[C@@H](NC(=O)[C@H](C(C)C)N(C)C(=O)OCc1ccc(NC(=O)[C@H](CCCNC(N)=O)NC(=O)[C@@H](NC(=O)CCCC(=O)NCCC(=O)N(C)CC(=O)N(C)CC(=O)N(C)CC(=O)N(C)CC(=O)N(C)CC(=O)N(C)CC(=O)N(C)CC(=O)N(C)CC(=O)N(C)CC(=O)N(C)CC(=O)N[C@H]2CCCCNC(=O)C[C@@H](C(=O)N[C@H]3CSCCC(=O)N4CN5CN(C4)C(=O)CCSC(C)(C)[C@H](NC(=O)[C@@H](CC(=O)O)NC(=O)[C@H](Cc4cccc6ccccc46)NC(=O)[C@@H]4CCCN4C3=O)C(=O)N[C@@H](CCSC)C(=O)N[C@@H](CCCCNC(=N)N)C(=O)N[C@@H](CC(=O)O)C(=O)N[C@@H](Cc3c[nH]c4ccccc34)C(=O)N[C@@H](CO)C(=O)N[C@@H]([C@@H](C)O)C(=O)N3CCC[C@H]3C(=O)N3C[C@H](O)C[C@H]3C(=O)N[C@@H](Cc3c[nH]c4ccccc34)C(=O)N[C@H](C(N)=O)CSCCC5=O)NC(=O)CN(C)C2=O)C(C)C)cc1)C(C)C [Acetate salt of PDC_2] (I: [Sar][Sar][Sar][Sar][Sar][Sar][Sar][Sar][Sar][Sar]K[Sar]DCP[1Nal][dD][Pen]M[hArg]DWSTP[Hyp]WC-NH2 / II: V[Cit][PABC][NMeV]V[Dil][Dolaproine]-X1; lactam I:11-I:13; linker I:14-I:18-I:28 via TATA; linker I:N-II:N via X2)
- half-life at 1 μM [1]: > 3.61 h
- CLint scaled at 1 μM ([1]; read-out: CLint (liver)): < 23 mL/min/kg
- Kd (Human Nectin-4): 0.43 nM
